Results reported in article PMC3239189 (Nucleic Acids Research, 2011).

What was measured:
LHK-Exo = molecular target: T1, LHK-Exo (Laribacter hongkongensis HLHK9, UniProt C1D7P6 1-203); assay: X-ray crystallography
T1 sequence: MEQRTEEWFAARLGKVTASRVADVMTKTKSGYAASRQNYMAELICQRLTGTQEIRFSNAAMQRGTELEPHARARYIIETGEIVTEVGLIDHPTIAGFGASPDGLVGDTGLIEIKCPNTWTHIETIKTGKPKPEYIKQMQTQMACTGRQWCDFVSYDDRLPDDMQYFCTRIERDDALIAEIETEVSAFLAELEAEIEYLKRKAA

AUC = molecular target: the molecule itself; assay: AUC

TTTTT (ssDNA, 5'-phosphate) [5'-PO4-(dT)5]: binds (LHK-Exo).

B1: LHK-Exo (alkaline exonuclease from Laribacter hongkongensis HLHK9, LHK_01497) (enzyme, UniProt C1D7P6 1-203, looked up)
chain: T1 sequence
In the case of B1, the “stoichiometry N” value (AUC) is reported as 3.
